Experimental data published in publication PMC3527528.

Biological target: Ssl1 (S. sviceus laccase 1), small two-domain laccase from Streptomyces sviceus, without the twin-arginine signal peptide (Streptomyces sviceus)
Test: SEC-MALS; Superdex 200 10/300 GL, 0.5 mL/min, 50 mM potassium phosphate pH 7.5; 100 µL of Ssl1 at 7.5 mg/mL injected; multi-angle static light scattering with refractometer

stoichiometry N: 3
Substance: Ssl1 (S. sviceus laccase 1), small two-domain laccase from Streptomyces sviceus, without the twin-arginine signal peptide (enzyme)
